Measured values from patent US20050010028A1 (KEIO UNIVERSITY, published 2005).
Blank lines part the entries; values can stand above or below the binder they belong to.

B1: Rhodamine green-labeled c-Fos (other, UniProt P01101 118-211, looked up)
chain: GRAQSIGRRGKVEQLSPEEEEKRRIRRERNKMAAAKCRNRRRELTDTLQAETDQLEDEKSALQTEIANLLKEKEKLEFILAAHRPACKIPDDLG
modifications: C-terminus joined through puromycin to a rhodamine green modifying agent that also carries biotin or iminobiotin (Modifying agent 22 or 23; which one in the FCCS sample is not stated)
notes: also called Rh-Fos; rhodamine green-modified c-fos; not shown: T7 tag at the N-terminus; C-terminal polyhistidine tag

Columns and labels:
Cy5-labeled c-Jun = molecular target: T1, Cy5-labeled c-Jun (mouse, UniProt P05627 216-318, C-terminus joined through puromycin to a Cy5 modifying agent that also carries biotin or iminobiotin (Modifying agents 24-26; Modifying agent 25 in FIGS. 14 and 15; the agent used in the FCCS sample …); assay: fluorescence cross-correlation spectroscopy in solution, 10 nM each of the two labelled proteins and AP-1 double-stranded DNA
T1 construct: also called Cy5-Jun; Cy5-modified c-Jun; not shown: T7 tag at the N-terminus; C-terminal polyhistidine tag
T1 sequence (P05627 216-318): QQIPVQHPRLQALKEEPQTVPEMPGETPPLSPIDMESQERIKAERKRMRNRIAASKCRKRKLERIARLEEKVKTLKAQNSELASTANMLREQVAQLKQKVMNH
Protocol: (§1) Intermolecular interactions were analyzed by fluorescence cross-correlation spectroscopy using fluorescence-labeled c-Fos and c-Jun as well as AP-1 sequence double-stranded DNA. DNA and the modified proteins (at a final concentration of 10 nM each) were mixed. 10 μl of this sample was applied to an 8-well glass chamber (Nunc), and fluorescence cross-correlations were measured by using a fluorescence correlation spectrometer, ConfoCor2 (Car1 Zeiss). […] Based on the above, it was confirmed that proteins labeled with fluorescence according to the present invention could be used to detect protein interactions by using a fluorescence cross-correlation spectroscopy and further could be utilized for convenient and quick measurement of dissociation constant.

[1] = molecular target: T2, Fos modified with TAMRA-dC-puromycin (Modifying agent 19) (mouse, UniProt P01101 118-211, C-terminus joined to TAMRA-dC-puromycin (Modifying agent 19)); assay: protein microarray: STA-Fos on a biotin plate, labelled Fos in solution, fluorescence scan
T2 construct: also called C-terminal fluorescence-labeled Fos; Fos protein having 12 His tags

[2] = molecular target: B1; assay: fluorescence cross-correlation spectroscopy in solution, Cy5-Fos + Rh-Fos + AP-1 DNA
Protocol: as §1

Binder: B1
- Kd (Cy5-labeled c-Jun): ~10 nM

- binding result [1]: no binding
B2: streptavidin-fused Fos protein (other, UniProt P01101 118-211, looked up)
chain: GRAQSIGRRGKVEQLSPEEEEKRRIRRERNKMAAAKCRNRRRELTDTLQAETDQLEDEKSALQTEIANLLKEKEKLEFILAAHRPACKIPDDLG
notes: From plasmid pSP6-STA-Fos (pET20b backbone), spotted as translation solution on a biotin-coated slide; also called STA-Fos; STA-Fos(F); not shown: T7 tag at the N-terminus of streptavidin; streptavidin, gene amplified from the Streptomyces avidinii genome

- binding result [2]: no binding (tested: 10 nM each)
B3: Cy5-labeled c-Fos (other, UniProt P01101 118-211, looked up)
chain: GRAQSIGRRGKVEQLSPEEEEKRRIRRERNKMAAAKCRNRRRELTDTLQAETDQLEDEKSALQTEIANLLKEKEKLEFILAAHRPACKIPDDLG
modifications: C-terminus joined through puromycin to a Cy5 modifying agent that also carries biotin or iminobiotin (Modifying agents 24-26; Modifying agent 25 in FIGS. 14 and 15; the agent used in the FCCS sample is not stated)
notes: also called Cy5-Fos; not shown: T7 tag at the N-terminus; C-terminal polyhistidine tag
